Test system: Abp1 PPIs
Assay: DHFR-PCA of Abp1 SH3-swapped baits (Fig. 2B-D, S2C, S2F)
Assay type: cell-based, Saccharomyces cerevisiae
Settings: number of interactions of Abp1 carrying the named SH3; sheet FigS2A-B
In short: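 Yeast DHFR-PCA in which Abp1 baits, carrying their SH3 replaced by CRISPR–Cas9 with one of 27 yeast SH3s or human CTTN, HCLS1 or DBNL SH3s, were mated against 575 SH3-associated DHFR F[3] preys plus 40 negative controls. Four tests were run per PPI. Diploids were selected twice (48 h, 30 °C), then grown 4 days on PCA selection media.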

B1: WT (protein, UniProt P15891 2-592, looked up)
Actin-binding protein: ALEPIDYTTHSREIDAEYLKIVRGSDPDTTWLIISPNAKKEYEPESTGSSFHDFLQLFDETKVQYGLARVSPPGSDVEKIIIIGWCPDSAPLKTRASFAANFAAVANNLFKGYHVQVTARDEDDLDENELLMKISNAAGARYSIQTSSKQQGKASTPPVKKSFTPSKSPAPVSKKEPVKTPSPAPAAKISSRVNDNNDDDDWNEPELKERDFDQAPLKPNQSSYKPIGKIDLQKVIAEEKAKEDPRLVQKPTAAGSKIDPSSDIANLKNESKLKRDSEFNSFLGTTKPPSMTESSLKNDDDKVIKGFRNEKSPAQLWAERKAKQNSGNAETKAEAPKPEVPEDEPEGEPDVKDLKSKFEGLAASEKEEEEMENKFAPPPKKSEPTIISPKPFSKPQEPVKAEEAEQPKTDYKKIGNPLPGMHIEADNEEEPEENDDDWDDDEDEAAQPPLPSRNVASGAPVQKEEPEQEEIAPSLPSRNSIPAPKQEEAPEQAPEEEIEEEAEEAAPQLPSRSSAAPPPPPRRATPEKKPKENPWATAEYDYDAAEDNELTFVENDKIINIEFVDDDWWLGELEKDGSKGLFPSNYVSLGN
Interactions in Abp1: 80

Source: paper PMC7954794, “Protein context shapes the specificity of SH3 domain-mediated interactions in vivo” (Nature Communications, 2021)
